The results in this text go back to patent US20050260733.

Series [1] concerns the target undigested bovine aggrecan, P13608.
In the next series the target is T1, α-2 macroglobulin.
T1 sequence (P01023 24-1474, species assumed, looked up): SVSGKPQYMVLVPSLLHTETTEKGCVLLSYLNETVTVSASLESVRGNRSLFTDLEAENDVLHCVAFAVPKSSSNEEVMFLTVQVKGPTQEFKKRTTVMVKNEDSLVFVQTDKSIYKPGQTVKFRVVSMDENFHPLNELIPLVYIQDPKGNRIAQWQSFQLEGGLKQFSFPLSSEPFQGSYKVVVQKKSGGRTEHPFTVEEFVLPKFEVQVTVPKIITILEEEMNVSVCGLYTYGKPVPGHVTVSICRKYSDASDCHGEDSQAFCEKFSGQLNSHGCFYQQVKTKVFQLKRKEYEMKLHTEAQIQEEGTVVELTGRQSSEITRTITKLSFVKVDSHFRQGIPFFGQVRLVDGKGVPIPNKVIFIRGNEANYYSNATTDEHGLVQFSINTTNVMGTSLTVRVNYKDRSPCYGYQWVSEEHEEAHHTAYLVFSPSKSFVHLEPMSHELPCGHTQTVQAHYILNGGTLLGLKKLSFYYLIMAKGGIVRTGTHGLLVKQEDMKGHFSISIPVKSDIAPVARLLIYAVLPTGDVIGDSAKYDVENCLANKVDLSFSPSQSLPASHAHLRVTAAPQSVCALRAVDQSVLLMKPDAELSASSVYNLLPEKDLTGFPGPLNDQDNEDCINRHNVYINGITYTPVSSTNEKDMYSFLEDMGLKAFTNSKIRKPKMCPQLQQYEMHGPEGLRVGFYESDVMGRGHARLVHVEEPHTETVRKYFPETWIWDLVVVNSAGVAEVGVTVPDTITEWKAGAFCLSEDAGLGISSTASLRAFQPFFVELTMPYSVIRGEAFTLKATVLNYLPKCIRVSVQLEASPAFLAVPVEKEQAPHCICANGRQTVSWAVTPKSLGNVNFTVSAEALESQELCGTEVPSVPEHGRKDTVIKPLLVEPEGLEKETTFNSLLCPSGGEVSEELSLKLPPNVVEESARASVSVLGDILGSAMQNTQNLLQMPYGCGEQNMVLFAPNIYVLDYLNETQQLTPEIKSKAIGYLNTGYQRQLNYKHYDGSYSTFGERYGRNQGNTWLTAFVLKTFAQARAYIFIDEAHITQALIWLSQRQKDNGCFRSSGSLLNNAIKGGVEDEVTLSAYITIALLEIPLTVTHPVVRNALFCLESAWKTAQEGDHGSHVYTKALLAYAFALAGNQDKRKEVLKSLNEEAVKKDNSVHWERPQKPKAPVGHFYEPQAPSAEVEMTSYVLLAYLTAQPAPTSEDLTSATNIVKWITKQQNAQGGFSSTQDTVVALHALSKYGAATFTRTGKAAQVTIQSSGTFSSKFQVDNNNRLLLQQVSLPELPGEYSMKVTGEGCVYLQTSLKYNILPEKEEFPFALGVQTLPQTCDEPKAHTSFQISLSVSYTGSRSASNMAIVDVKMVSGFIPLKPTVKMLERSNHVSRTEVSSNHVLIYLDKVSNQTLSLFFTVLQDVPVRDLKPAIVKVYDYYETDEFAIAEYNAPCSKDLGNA

undigested bovine aggrecan, P13608, sequence (P13608 20-2364): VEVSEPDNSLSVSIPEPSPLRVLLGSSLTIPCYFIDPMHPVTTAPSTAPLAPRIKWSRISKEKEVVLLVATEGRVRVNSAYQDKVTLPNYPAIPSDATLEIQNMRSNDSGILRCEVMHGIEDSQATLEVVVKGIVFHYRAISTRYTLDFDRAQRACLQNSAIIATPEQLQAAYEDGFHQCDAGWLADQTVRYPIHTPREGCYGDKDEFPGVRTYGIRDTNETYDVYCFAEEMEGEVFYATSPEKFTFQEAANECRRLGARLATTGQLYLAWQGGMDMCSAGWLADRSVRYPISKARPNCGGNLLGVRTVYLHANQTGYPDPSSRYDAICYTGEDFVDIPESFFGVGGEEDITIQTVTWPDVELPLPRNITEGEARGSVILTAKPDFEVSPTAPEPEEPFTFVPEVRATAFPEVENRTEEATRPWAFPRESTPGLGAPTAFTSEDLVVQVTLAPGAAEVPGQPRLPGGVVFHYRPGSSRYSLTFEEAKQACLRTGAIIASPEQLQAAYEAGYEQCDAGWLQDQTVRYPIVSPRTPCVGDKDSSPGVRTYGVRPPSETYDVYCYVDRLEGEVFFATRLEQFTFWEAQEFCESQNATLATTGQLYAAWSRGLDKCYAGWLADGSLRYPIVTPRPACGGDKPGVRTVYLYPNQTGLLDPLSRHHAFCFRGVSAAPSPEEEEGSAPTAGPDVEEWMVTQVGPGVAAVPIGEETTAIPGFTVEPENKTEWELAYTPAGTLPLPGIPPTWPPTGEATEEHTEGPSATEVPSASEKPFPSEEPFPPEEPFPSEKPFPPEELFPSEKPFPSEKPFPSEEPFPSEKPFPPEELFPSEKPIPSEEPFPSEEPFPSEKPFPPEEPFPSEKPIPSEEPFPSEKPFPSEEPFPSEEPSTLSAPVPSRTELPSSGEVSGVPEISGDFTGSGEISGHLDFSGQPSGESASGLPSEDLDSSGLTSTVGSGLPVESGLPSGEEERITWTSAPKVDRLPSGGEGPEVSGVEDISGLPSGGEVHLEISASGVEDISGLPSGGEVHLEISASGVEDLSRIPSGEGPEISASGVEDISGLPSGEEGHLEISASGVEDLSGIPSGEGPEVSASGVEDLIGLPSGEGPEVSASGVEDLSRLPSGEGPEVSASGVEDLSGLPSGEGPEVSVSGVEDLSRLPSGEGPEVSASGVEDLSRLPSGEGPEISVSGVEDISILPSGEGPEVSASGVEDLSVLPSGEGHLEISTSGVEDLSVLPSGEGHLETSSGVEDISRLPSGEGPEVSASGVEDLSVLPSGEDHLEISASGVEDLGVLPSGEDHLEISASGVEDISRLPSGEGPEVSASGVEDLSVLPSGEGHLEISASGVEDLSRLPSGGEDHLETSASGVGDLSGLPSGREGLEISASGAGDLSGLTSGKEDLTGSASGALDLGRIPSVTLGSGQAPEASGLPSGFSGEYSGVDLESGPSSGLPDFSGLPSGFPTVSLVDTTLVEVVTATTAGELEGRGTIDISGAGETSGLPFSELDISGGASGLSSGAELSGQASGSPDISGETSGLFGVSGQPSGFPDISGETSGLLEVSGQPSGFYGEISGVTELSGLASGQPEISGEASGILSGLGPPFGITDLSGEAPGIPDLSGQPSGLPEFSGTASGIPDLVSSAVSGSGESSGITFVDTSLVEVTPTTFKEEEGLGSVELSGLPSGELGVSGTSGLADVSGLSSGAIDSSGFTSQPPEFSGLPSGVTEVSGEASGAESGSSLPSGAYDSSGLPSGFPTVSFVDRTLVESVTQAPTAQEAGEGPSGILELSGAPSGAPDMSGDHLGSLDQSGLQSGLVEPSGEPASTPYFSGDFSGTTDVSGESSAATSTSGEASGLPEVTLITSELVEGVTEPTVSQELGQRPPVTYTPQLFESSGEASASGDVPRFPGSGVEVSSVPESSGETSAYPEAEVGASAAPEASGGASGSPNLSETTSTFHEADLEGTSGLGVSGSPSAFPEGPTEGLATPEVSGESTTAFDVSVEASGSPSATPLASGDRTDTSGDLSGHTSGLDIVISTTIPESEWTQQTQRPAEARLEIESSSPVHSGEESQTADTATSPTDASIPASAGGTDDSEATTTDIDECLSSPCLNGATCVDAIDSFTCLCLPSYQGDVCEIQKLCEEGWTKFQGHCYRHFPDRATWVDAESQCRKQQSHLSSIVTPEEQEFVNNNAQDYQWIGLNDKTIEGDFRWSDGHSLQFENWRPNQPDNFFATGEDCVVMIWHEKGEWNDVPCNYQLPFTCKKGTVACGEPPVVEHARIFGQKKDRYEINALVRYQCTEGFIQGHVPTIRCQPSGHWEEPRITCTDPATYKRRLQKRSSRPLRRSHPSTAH

B1: recombinant human ADAMTS-8 with C-terminal Strep-tag (protein)
chain: RFVSEARFVETLLVADASMAAFYGADLQNHILTLMSVAARIYKHPSIKNSINLMVVKVLIVEDEKWGPEVSDNGGLTLRNFCNWQRRFNQPSDRHPEHYDTAILLTRQNFCGQEGLCDTLGVADIGTICDPNKSCSVIEDEGLQAAHTLAHELGHVLSMPHDDSKPCTRLFGPMGKHHVMAPLFVHLNQTLPWSPCSAMYLTELLDGGHGDCLLDAPRAALPLPTGLPGRMALYQLDQQCRQIFGPDFRHCPNTSAQDVCAQLWCHTDGAEPLCHTKNGSLPWADGTPCGPGHLCSEGSCLPEEEVERPKPVADGGWAPWGPWGECSRTCGGGVQFSHRECKDPEPQNGGRYCLGRRAKYQSCHTEECPPDGKSFREQQCEKYNAYNYTDMDGNLLQWVPKYAGVSPRDRCKLFCRARGRSEFKVFEAKVIDGTLCGPETLAICVRGQCVKAGCDHVVDSPRKLDKCGVCGGKGNSCRKVSGSLTPTNYGYNDIVTIPAGATNIDVKQRSHPGVQNDGNYLALKTADGQYLLNGNLAISAIEQDILVKGTILKYSGSIATLERLQSFRPLPEPLTVQLLTVPGEVFPPKVKYTFFVPNDVDFSMQSSKERATTNIIQPLLHAQWVLGDWSECSSTCGAGWQRRTVECRDPSGQASATCNKALKPEDAKPCESQLCPLGSGSAWSHPQFEK
On to B1, for which, in series [1], the “aggrecan cleavage seen by neoepitope Western blot” value is on record as “MAb BC-3 immunoreactive bands increased in intensity with increasing amounts of ADAMTS-8 protein relative to aggrecan substrate” and the “lowest enzyme:substrate ratio at which cleavage is detected by Western blot” value is “cleavage of bovine articular cartilage aggrecan by ADAMTS-8 at an enzyme:substrate ratio of 1:0.5 using the BC-3 neoepitope MAb ... can be readily detected”.

B2: recombinant C-terminally truncated ADAMTS-8 (protein)
chain: MLPAPAAPRWPPLLLLLLLLLLPLARGAPARPAAGGQASELVVPTRLPGSAGELALHLSAFGKGFVLRLAPDDSFLAPEFKIERLGGSGRATGGERGLRGCFFSGTVNGEPESLAAVSLCRGLSGSFLLDGEEFTIQPQGAGGSLAQPHRLQRWGPAGARPLPRGPEWEVETGEGQRQERGDHQEDSEEESQEEEAEGASEPPPPLGATSRTKRFVSEARFVETLLVADASMAAFYGADLQNHILTLMSVAARIYKHPSIKNSINLMVVKVLIVEDEKWGPEVSDNGGLTLRNFCNWQRRFNQPSDRHPEHYDTAILLTRQNFCGQEGLCDTLGVADIGTICDPNKSCSVIEDEGLQAAHTLAHELGHVLSMPHDDSKPCTRLFGPMGKHHVMAPLFVHLNQTLPWSPCSAMYLTELLDGGHGDCLLDAPRAALPLPTGLPGRMALYQLDQQCRQIFGPDFRHCPNTSAQDVCAQLWCHTDGAEPLCHTKNGSLPWADGTPCGPGHLCSEGSCLPEEEVERPKPVADGGWAPWGPWGECSRTCGGGVQFSHRECKDPEPQNGGRYCLGRRAKYQSCHTEECPPDGKSFREQQCEKYNAYNYTDMDGNLLQWVPKYAGVSPRDRCKLFCRARGRSEFKVFEAKVIDGTLCGPETLAICVRGQCVKAGCDHVVDSPRKLDKCGVCGGKGNSCRKVSGSLTPTNYGYNDIVTIPAGATNIDVKQRSHPGVQNDGNYLALKTADGQYLLNGNLAISAIEQDILVKGTILKYSGSIATLERLQSFRPLPEPLTVQLLTVPGEVFPPKVKYTFFVPNDVDFSMQSSKERATTNIIQPLLHAQWVLGDWSECSSTCGAGWQRRTVECRDPSGQASATCNKALKPEDAKPCESQLCPL
For the protein B2, the “aggrecan cleavage by AGG-C1 Western blotting” value in series [1] is “it seemed to be no more active than full-length recombinant ADAMTS-8 on aggrecan substrate as judged by AGG-C1 Western blotting”. The α2-macroglobulin assay result with α-2 macroglobulin is reported as “the purified protein was active as judged by α2-macroglobulin assay”.
